According to US20220356229A1 (published 2022):

B1: anti-SARS-CoV-2 antibody 1098 (antibody, V domains shown)
VH: EVQLLESGGGLVQPGGSLRLSCAASGFTFNSYAMSWVRQAPGKGLEWVSAISGSGGSTYYADSVKGRFSISRDNAKNTLFLQMNSLRAEDTAVYYCARSGGNFDYWGQGTLVTVSL
VL: SYELTQPPSVSVSPGQTARITCSGDVLAKRYVYWYQQKPGQAPVLVIYRDSERPSGIPERFSGSSSGTTVTLTISGVQAVDEADYYCQSADSSGTLYVFGTGTKVTVL
B2: anti-SARS-CoV-2 antibody 1118 (antibody, V domains shown)
VH: QVQLVESGGGVVQPGRSLRLSCAASGFTFSTYAMHWVRQAPGKGLEWVAVISYDGSNKYYSDSVKGRFTISRDNSKNTLYLQMNSLRAEDTAVYYCARAHTSGWPLGDYFDYWGQGTLVTVSS
VL: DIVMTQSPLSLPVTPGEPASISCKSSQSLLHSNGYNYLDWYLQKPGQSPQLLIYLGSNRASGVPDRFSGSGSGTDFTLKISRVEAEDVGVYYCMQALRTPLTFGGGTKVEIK
B3: anti-SARS-CoV-2 antibody 555 (antibody, V domains shown)
VH: QVQLVQSGAEVKKPGSSVKVSCKASGGTFSNYAISWVRQAPGQGLEWMGRIIPILGIANYAQKFQGRVTITADKSTSTAYMELSSLRSEDTAVYYCARGYYEARHYYYYYAMDVWGQGTAVTVSS
VL: not shown
B4: anti-SARS-CoV-2 antibody 923 (antibody, V domains shown)
VH: EVQLVESGGGVVRPGGSLRLSCAASGFIFDDYDMTWVRQAPGKGLEWVSGISWNGGNTGYADSVKGRFTISRDNAKNSLYLQMNSLRAEDTALYHCAVIMSPIPRYSGYDWAGGAFDIWGQGTMVTVSS
VL: SSELTQDPAVSVALGQTVRITCQGDSLRSYYASWYQQKPGQVPILVIYDKNNRPSGIPDRFSGSSSGNTASLTITGAQAEDEADYYCNSRDSSGNAVVFGGGTKLTVLG
B5: anti-SARS-CoV-2 antibody 1037 (antibody, V domains shown)
VH: QITLKESGPTLVKPTQTLTLTCTFSGFSLSTSGVGVGWIRQPPGKALEWLALIYWDDDKRYSPSLKSRLTITKDTSKNQVVLTMTNMDPVDTATYYCAHHTITRINDYWGQGTLVTVSS
VL: QSALTQPASVSGSPGQSITISCTATSSDVGAYNYVSWYQQHPGKAPKLMIYDVSKRPSGVSNRFSGSKSGNTASLTISGLQAEDEADYYCSSYTSSSTVFGGGTKLTVLG
B6: anti-SARS-CoV-2 antibody 1075 (antibody, V domains shown)
VH: QVQLVQSGAEVKKPGASVKVSCKVSGYTLIELSMHWVRQAPGKGLEWMGGFDPEDGETIYAQKFQGRVTMTEDTSTDTAYMELSSLRSEDTAVYYCATEWAYYGSGSYLGYWGQGTLVTVSS
VL: EIVMTQSPATLSVSPGERATLSCRASQSVSSNLAWFQQKPGQAPRLLIYGASTRVTVIPARFSGSGSGTEFTLTISSLQSEDFAVYYCQQYNNWPRTFGQGTKVEIKR
B7: antibody 576 (antibody, V domains shown)
VH: QVQLVESGGGVVQPGRSLRLSCAASGFTFSSYAMHWVRQAPGKGLEWVAVISYDGSNKYYADSVKGRFTISRDNSKNTLYLQMNSLRAEDTAVYYCAKAGGGSYYRGFDYWGQGTLVTVSS
VL: DIQLTQSPSFLSASVGDRVTITCRASQGISSYLAWYQQKPGKAPKLLIYAASTLQSGVPSRFSGSGSGTEFTLTISSLQPEDFATYYCQQLNSYPTFGPGTKVDIK
B8: antibody 577 (antibody, V domains shown)
VH: QLPLQESGPGLVKPSETLSLTCTVSGGSISSSSYYWGWIRQPPGKGLEWIGSIYYSGSTFYNPSLKSRVTISGDTSKNQFSLKVTSVTAADTAVYYCARGSGSSGWYAFDIWGQGTMVTVSS
VL: QSALTQPASVSGSPGQSITISCTGTSSDFGGYNYVSWYQQHPDKAPKLMIYDVSNRPSGVSNRFSGSKSGNTASLTISGLQAEDEADYYCSSYTTSSTWVFGGGTKLTVL

How the values were obtained:
[1] = biological target: SARS-CoV-2 Spike protein (wild type) (SARS-CoV-2, UniProt P0DTC2 14-1208); assay: SPR (Carterra LSA), mAb coupled to HC30M chip, Spike titrated; Example 4 methods
[2] = biological target: SARS-CoV-2 Spike protein on pseudotyped lentivirus (SARS-CoV-2, UniProt P0DTC2 14-1273); assay: cell-based or functional assay
[3] = biological target: Spike protein of authentic SARS-CoV-2/MT020880.1 (live virus) (SARS-CoV-2, UniProt P0DTC2 14-1273); assay: cell-based or functional assay
[4] = biological target: Spike protein of SARS-CoV-2 hCoV-19/Canada/ON_ON-VIDO-01-2/202 (live virus) (SARS-CoV-2, UniProt P0DTC2 14-1273); assay: cell-based or functional assay
[5] = biological target: SARS-CoV-2 full length Spike protein, wild type, expressed on the surface of transiently transfected CHO cells (SARS-CoV-2, UniProt P0DTC2 14-1273)

| Binder | Kd [1] | Pseudo-neutralization IC50 [2] | IC50 (ng/mL), immunofluorescence neutralization assay [3] | IC50 (µg/mL), plaque reduction neutralization test [4] | median fluorescence intensity, fold over isotype control [5] |
| --- | --- | --- | --- | --- | --- |
| B1 | 0.173 nM | 0.087 µg/mL |  |  |  |
| B2 | 0.223 nM | 0.026 µg/mL |  |  |  |
| B3 |  |  | 49.2 ng/mL | 0.0083 µg/mL |  |
| B4 |  |  | 121 ng/mL | 0.01 µg/mL |  |
| B5 |  |  | 32.8 ng/mL | 0.0096 µg/mL |  |
| B6 |  |  | 89.6 ng/mL | 0.409 µg/mL |  |
| B7 |  |  |  |  | 8.75 fold over isotype |
| B8 |  |  |  |  | 1.14 fold over isotype |
